Measured values reported in publication PMC11143254, “Cryo-EM structure of cadmium-bound human ABCB6” (Communications Biology, 2024).

Biological target: the molecule itself
Test: cryo-EM structure; nanodisc-reconstituted hABCB6^core (0.5 mg/mL) incubated with 800 uM CdCl2 and 1 mM GSH (or PC2) at 4 °C for 30 min; C2 symmetry; inward-facing homodimer

B1: human ABCB6 core region lacking TMD0 (hABCB6^core) (domain or fragment, UniProt Q9NP58 206-842, looked up)
chain: APGLRPQSYTLQVHEEDQDVERSQVRSAAQQSTWRDFGRKLRLLSGYLWPRGSPALQLVVLICLGLMGLERALNVLVPIFYRNIVNLLTEKAPWNSLAWTVTSYVFLKFLQGGGTGSTGFVSNLRTFLWIRVQQFTSRRVELLIFSHLHELSLRWHLGRRTGEVLRIADRGTSSVTGLLSYLVFNVIPTLADIIIGIIYFSMFFNAWFGLIVFLCMSLYLTLTIVVTEWRTKFRRAMNTQENATRARAVDSLLNFETVKYYNAESYEVERYREAIIKYQGLEWKSSASLVLLNQTQNLVIGLGLLAGSLLCAYFVTEQKLQVGDYVLFGTYIIQLYMPLNWFGTYYRMIQTNFIDMENMFDLLKEETEVKDLPGAGPLRFQKGRIEFENVHFSYADGRETLQDVSFTVMPGQTLALVGPSGAGKSTILRLLFRFYDISSGCIRIDGQDISQVTQASLRSHIGVVPQDTVLFNDTIADNIRYGRVTAGNDEVEAAAQAAGIHDAIMAFPEGYRTQVGERGLKLSGGEKQRVAIARTILKAPGIILLDEATSALDTSNERAIQASLAKVCANRTTIVVAHRLSTVVNADQILVIKDGCIVERGRHEALLSRGGVYADMWQLQQGQEETSEDTKPQTMER
notes: human ABCB6, core region lacking the N-terminal TMD0, residues 206-842, codon-optimized synthetic gene; Homodimeric half-transporter; The C-terminal tag (thrombin site, eGFP, 10xHis) was removed by thrombin; residues of the cleavage site may remain; Modelled residues exclude the extreme N-terminus and residues 827-842; not shown: eGFP, C-terminal, cleaved; 10xHis, C-terminal, cleaved
- stoichiometry N: 2
